The data set can be described thus: western blot, TGF-β-treated MCF-10A. The conditions noted are these: glycan lost, control: control sgRNA cells.
With PD-L1: STT3A knockdown, the expression_or_secretion entry is “no change”.

For PD-L1: STT3A/3B knockdown, the expression_or_secretion result is “decreases”.

In the case of PD-L1: STT3B knockdown, the expression_or_secretion result is “no change”.

The values are drawn from article PMC5954021.
